Tested on: peptide library, one residue held at a place counted from the Y acceptor
Test: relative phosphorylation of the sub-library (ratio to the mean residue at this position); higher = residue favoured
Method in brief: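 Purified recombinant kinases were incubated for 90 min in 384-well plates with biotinylated Tyr-centred peptide library mixtures, each fixing one residue at one position from −5 to +5, plus 50 μM ATP with γ-32P-ATP. Peptides were captured on streptavidin membranes, rinsed and quantified by phosphorimaging and ImageQuant. Intensities were normalized per position by the sum of the 18 (or 16, Ser/Thr-free library) randomized residues and multiplied by that number. Values give phosphorylation relative to the mean randomized residue.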

TEC, construct: Full length, human, sequence (P42680 whole entry, looked up): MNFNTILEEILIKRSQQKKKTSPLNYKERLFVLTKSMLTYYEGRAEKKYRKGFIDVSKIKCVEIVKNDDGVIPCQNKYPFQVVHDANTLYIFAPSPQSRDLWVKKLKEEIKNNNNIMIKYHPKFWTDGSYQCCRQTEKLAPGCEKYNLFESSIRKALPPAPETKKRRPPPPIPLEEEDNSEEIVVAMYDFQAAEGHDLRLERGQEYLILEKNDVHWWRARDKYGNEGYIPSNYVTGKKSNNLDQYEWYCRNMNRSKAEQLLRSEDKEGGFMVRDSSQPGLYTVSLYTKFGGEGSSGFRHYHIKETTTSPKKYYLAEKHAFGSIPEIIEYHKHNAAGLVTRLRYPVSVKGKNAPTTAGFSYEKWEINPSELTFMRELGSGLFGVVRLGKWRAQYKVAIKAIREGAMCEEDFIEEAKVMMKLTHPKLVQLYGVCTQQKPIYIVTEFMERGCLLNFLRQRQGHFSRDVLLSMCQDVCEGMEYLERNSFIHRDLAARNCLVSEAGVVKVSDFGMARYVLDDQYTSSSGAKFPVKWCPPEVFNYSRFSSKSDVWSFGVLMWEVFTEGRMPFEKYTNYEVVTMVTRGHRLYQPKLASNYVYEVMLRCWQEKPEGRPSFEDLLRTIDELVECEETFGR
TESK1, construct: aa1-345, human, sequence (Q15569 1-345, looked up): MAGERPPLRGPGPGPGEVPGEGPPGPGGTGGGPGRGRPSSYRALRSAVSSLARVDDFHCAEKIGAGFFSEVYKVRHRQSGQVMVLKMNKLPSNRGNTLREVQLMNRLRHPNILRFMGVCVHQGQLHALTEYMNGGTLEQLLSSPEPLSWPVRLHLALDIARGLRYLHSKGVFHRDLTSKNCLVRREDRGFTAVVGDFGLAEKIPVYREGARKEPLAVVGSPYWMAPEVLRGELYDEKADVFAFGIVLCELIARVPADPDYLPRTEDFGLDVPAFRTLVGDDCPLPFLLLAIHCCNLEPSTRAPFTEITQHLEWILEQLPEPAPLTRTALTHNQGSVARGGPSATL

TEC, construct: Full length, human (from UniProt P42680)
relative phosphorylation
Conditions | at +1 | at +2 | at +3 | at +4 | at +5 | at -1 | at -2 | at -3 | at -4 | at -5
A fixed | 1.7 | 0.954 | 0.562 | 0.694 | 0.847 | 0.4 | 1.06 | 0.921 | 1.1 | 0.884
D fixed | 0.761 | 0.712 | 0.353 | 0.726 | 0.87 | 0.463 | 1.44 | 1.42 | 1.41 | 1.26
E fixed | 2.13 | 0.838 | 0.301 | 0.674 | 0.934 | 0.454 | 1.82 | 1.65 | 1.51 | 1.06
F fixed | 0.677 | 1.07 | 1.65 | 1.12 | 1.11 | 1.33 | 0.585 | 1.32 | 0.973 | 0.94
G fixed | 0.565 | 0.515 | 0.568 | 0.821 | 0.921 | 0.263 | 1.11 | 0.917 | 1.03 | 1.02
H fixed | 0.582 | 1.04 | 1.2 | 1.55 | 1.24 | 0.555 | 1.04 | 0.944 | 0.967 | 1.13
I fixed | 1.21 | 0.776 | 1.75 | 0.789 | 0.637 | 5.08 | 0.736 | 0.746 | 0.857 | 0.79
K fixed | 0.295 | 0.932 | 0.78 | 1.23 | 1.23 | 0.279 | 0.915 | 0.682 | 0.924 | 1.06
L fixed | 0.935 | 0.918 | 1.4 | 0.889 | 0.838 | 2.88 | 0.9 | 0.814 | 0.955 | 0.921
M fixed | 1.58 | 0.86 | 1.25 | 0.98 | 0.956 | 1.26 | 0.806 | 0.932 | 0.945 | 1.01
N fixed | 0.466 | 1.2 | 0.692 | 0.896 | 1.01 | 0.433 | 1.19 | 1.25 | 1.01 | 1.21
P fixed | 0.143 | 0.67 | 0.721 | 0.986 | 1.07 | 0.38 | 1.13 | 0.962 | 0.989 | 0.949
Q fixed | 1.33 | 1.07 | 0.643 | 1.05 | 1.03 | 0.441 | 1.22 | 0.967 | 1.28 | 1.2
R fixed | 0.413 | 1.66 | 1.32 | 1.61 | 1.36 | 0.274 | 0.882 | 0.773 | 0.891 | 1.15
S fixed | 1.22 | 1.31 | 0.67 | 0.871 | 0.997 | 0.409 | 0.942 | 1.1 | 0.771 | 0.919
T fixed | 1.05 | 1.13 | 0.702 | 0.817 | 0.924 | 0.801 | 0.856 | 0.78 | 0.626 | 0.754
V fixed | 1.57 | 1.03 | 1.26 | 0.785 | 0.656 | 1.7 | 0.782 | 0.775 | 0.785 | 0.887
W fixed | 1.38 | 1.31 | 2.18 | 1.51 | 1.37 | 0.596 | 0.589 | 1.05 | 0.981 | 0.856
pThr fixed | 1.91 | 1.66 | 0.298 | 0.525 | 0.563 | 0.786 | 1.26 | 0.929 | 1.03 | 0.999
pTyr fixed | 1.08 | 1.3 | 0.4 | 0.683 | 0.779 | 2.06 | 0.955 | 1.08 | 1.02 | 0.894

TESK1, construct: aa1-345, human (from UniProt Q15569)
relative phosphorylation
Conditions | at +1 | at +2 | at +3 | at +4 | at +5 | at -1 | at -2 | at -3 | at -4 | at -5
A fixed | 0.921 | 0.778 | 0.879 | 0.762 | 0.876 | 0.971 | 0.967 | 0.874 | 0.973 | 0.938
D fixed | 0.992 | 0.998 | 0.881 | 0.902 | 0.794 | 0.977 | 0.822 | 0.931 | 0.858 | 0.85
E fixed | 0.876 | 0.917 | 0.871 | 0.854 | 0.839 | 0.953 | 0.833 | 0.776 | 0.792 | 0.742
F fixed | 0.935 | 1.11 | 0.936 | 0.966 | 0.869 | 0.778 | 0.911 | 0.926 | 0.984 | 0.883
G fixed | 0.887 | 0.899 | 0.928 | 1.03 | 0.915 | 1 | 1.09 | 1.11 | 1.13 | 1.05
H fixed | 1.01 | 1.09 | 1.06 | 1.07 | 1.17 | 0.962 | 0.976 | 0.915 | 0.949 | 0.975
I fixed | 0.796 | 0.626 | 0.682 | 0.781 | 0.734 | 0.774 | 0.952 | 0.79 | 0.823 | 0.861
K fixed | 1.13 | 1.27 | 1.23 | 1.3 | 1.15 | 1.18 | 1.34 | 1.25 | 1.26 | 1.35
L fixed | 0.81 | 0.812 | 0.783 | 0.913 | 0.807 | 0.831 | 0.92 | 0.918 | 0.816 | 0.862
M fixed | 0.76 | 0.796 | 0.831 | 0.928 | 0.841 | 0.835 | 0.81 | 0.846 | 0.869 | 0.82
N fixed | 1.05 | 1.16 | 1.11 | 0.978 | 0.964 | 1.17 | 1.01 | 0.971 | 0.921 | 0.964
P fixed | 1.02 | 1.09 | 1.15 | 1.28 | 1.05 | 1.26 | 1.07 | 1.36 | 1.16 | 1.1
Q fixed | 1.09 | 1.09 | 1.02 | 1.09 | 0.929 | 1 | 0.842 | 1.04 | 0.891 | 0.831
R fixed | 1.18 | 1.25 | 1.23 | 1.19 | 1.27 | 1.26 | 1.27 | 1.29 | 1.2 | 1.27
V fixed | 0.817 | 0.69 | 0.72 | 0.764 | 0.713 | 0.743 | 0.946 | 0.864 | 0.875 | 0.881
W fixed | 1.72 | 1.44 | 1.69 | 1.19 | 2.09 | 1.29 | 1.24 | 1.14 | 1.5 | 1.62
pThr fixed | 0.988 | 0.893 | 0.765 | 0.809 | 0.615 | 1.05 | 0.932 | 0.934 | 0.929 | 0.776
pTyr fixed | 0.746 | 0.819 | 0.738 | 0.714 | 0.627 | 0.861 | 0.798 | 0.896 | 0.669 | 0.711

From the supplement of paper PMC11136658
